From patent US20260193638A1
Each block holds one binder with its values, some of them ahead of it.

Key:
[1] = target: T1, Thermus thermophilus SlyD-IGF-1 (74-90) chimeric polypeptide; test: ELISA, undiluted culture supernatant
T1 sequence: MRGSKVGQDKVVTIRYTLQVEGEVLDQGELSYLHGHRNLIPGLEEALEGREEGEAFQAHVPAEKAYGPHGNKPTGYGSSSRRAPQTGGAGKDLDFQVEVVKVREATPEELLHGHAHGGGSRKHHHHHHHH

[2] = target: recombinant native human IGF-1 (human) (UniProt P05019); test: ELISA, undiluted culture supernatant
[3] = target: T2, recombinant wild-type Thermus thermophilus SlyD (His6 tagged control) (Thermus thermophilus); test: ELISA, undiluted culture supernatant
T2 sequence: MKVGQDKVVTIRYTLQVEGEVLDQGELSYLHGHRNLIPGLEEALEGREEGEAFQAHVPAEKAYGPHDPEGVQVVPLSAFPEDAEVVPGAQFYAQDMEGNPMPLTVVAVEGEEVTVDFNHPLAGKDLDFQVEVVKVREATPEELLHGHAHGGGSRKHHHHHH

[4] = target: T1, Thermus thermophilus SlyD-IGF-1 (74-90) chimeric polypeptide; test: SPR at 25 °C, antibody captured, antigen in solution
[5] = target: recombinant native human IGF-1 (human) (UniProt P05019); test: as above
[6] = target: recombinant native human IGF-1 (human) (UniProt P05019); test: SPR at 37 °C, antibody captured, analyte in solution
[7] = target: T1, Thermus thermophilus SlyD-IGF-1 (74-90) chimeric polypeptide; test: as above
[8] = target: recombinant native human IGF-1 (human) (UniProt P05019); test: as above; remark: listed apart in the source

reactivity [1]: 2150 mE
reactivity [2]: 2430 mE
reactivity [3]: 32 mE
Kd [4]: 0.01 nM
MR [4]: 2
koff [4]: 1e-05 s⁻¹
kon [4]: 710000 M⁻¹ s⁻¹
t/2-diss [4]: 1110 min
Kd [5]: 0.01 nM
MR [5]: 2
koff [5]: 2.1e-05 s⁻¹
kon [5]: 2e+06 M⁻¹ s⁻¹
t/2-diss [5]: 560 min
Ka [6]: 2.2e+10 M⁻¹
Kd [6]: 0.046 nM
koff [6]: 0.00014 s⁻¹
kon [6]: 3.1e+06 M⁻¹ s⁻¹
t/2-diss [6]: 81 min
koff [7]: 1e-05 s⁻¹
t/2-diss [7]: 1160 min
koff [8]: 1e-05 s⁻¹
t/2-diss [8]: 1160 min
B1: monoclonal antibody M-11.11.17 (antibody, from a related filing, V domains shown)
VH: QVQLQQSGAELVRPGSSVKISCKASGYAFSNLWMNWVKQRPGQGLEWIGQIYPGDGDTNYYGDFKGKATLTADSSSSTAYMQLSRLTSEDSAVYFCARIGYYGMDYWGQGTSVTVSS
VL: DVVLTQTPLSLPVNIGDEASISCKSTKSLLSSDGLTYLDWYLQKPGQSPQVLIYLVSNRFSGVPDRFSGSGSGTDFTLKISRVEAEDLGVYYCFQSNYLPTFGAGTKLELK

reactivity [1]: 1900 mE
reactivity [2]: 2110 mE
reactivity [3]: 36 mE
Kd [4]: 2.4 nM
MR [4]: 1.8
koff [4]: 0.00069 s⁻¹
kon [4]: 290000 M⁻¹ s⁻¹
t/2-diss [4]: 17 min
Kd [5]: 1.6 nM
MR [5]: 1.7
koff [5]: 0.0015 s⁻¹
kon [5]: 920000 M⁻¹ s⁻¹
t/2-diss [5]: 8 min
Ka [6]: 2.2e+08 M⁻¹
Kd [6]: 4.5 nM
koff [6]: 0.006 s⁻¹
kon [6]: 1.3e+06 M⁻¹ s⁻¹
t/2-diss [6]: 2 min
koff [7]: 1e-05 s⁻¹
t/2-diss [7]: 1160 min
koff [8]: 1e-05 s⁻¹
t/2-diss [8]: 1160 min
B2: monoclonal antibody M-10.7.9 (antibody, from a related filing, V domains shown)
VH: QVQLQQSGAELVRPGSSVKISCKASGYAFSSYWMNWVKQRPGQGLEWIGQIYPGDGDTNHNGKFKGKATLTADKSSSTVYMQLSSLTSEDSAVYFCARSGDYYGKDYWGQGTTLTVSS
VL: DIVLTQTPPSLPVNMGQKATISYKATKSLLNTDGYTYMHWNQQKPGQPPKLLIYLVSNRESGVPDRFSGSGSGTDFTLNINTVEEEDAATYYCHHSNELPHTFGAGTKLEIK
